Source: the supplement of paper PMC10567573

B1: SNAP91 (parent)
chain: FAAPSPATTASPAKVDSSGVIDLF
B2: RTN1 (parent)
chain: VVAYLALAALSATISFRIYKSVLQ

Variants of: B1
Assay: protein stability index of a GFP-peptide fusion (GPS, HEK-293T) (PSI 1-6); higher = more stable
Settings: c terminus: a fixed tail appended
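Further: lentivirally expressed fusions sorted by FACS into six bins by GFP to DsRed ratio, PSI derived from sequencing read proportions per bin multiplied by bin number.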

First: T9F
Second: T9G
The protein stability index of the first is lower: 1.63 for the first, 2.28 for the second.

Compared with T9Q, T9V is higher in protein stability index: 2.46 for the first, 2.61 for the second.

Going from S11C to S11E, the protein stability index rises from 2.14 to 2.69.

Going from V20H to V20W, the protein stability index falls from 2.72 to 1.54.

Going from V20T to G19R, the protein stability index falls from 2.51 to 2.44.

First: A3R
Second: P6L
The protein stability index of the first is higher: 2.12 for the first, 1.49 for the second.

Compared with P6C, S5F is lower in protein stability index: 2.32 for the first, 1.97 for the second.

Going from S5G to S5Q, the protein stability index falls from 2.45 to 2.34.

First: D22H
Second: D22N
The protein stability index of the first is lower: 1.94 for the first, 2.24 for the second.

Compared with V15Q, V15T is higher in protein stability index: 2.04 for the first, 2.82 for the second.

Going from S17C to S17G, the protein stability index rises from 1.86 to 2.33.

Compared with L23V, I21H is lower in protein stability index: 2.83 for the first, 2.51 for the second.

First: F24W
Second: F24L
The protein stability index of the first is lower: 1.22 for the first, 3.13 for the second.

First: F24T
Second: S18M
The protein stability index of the first is higher: 3.75 for the first, 2.06 for the second.

Going from F1T to P4L, the protein stability index falls from 4.13 to 1.93.

Going from P4D to A13Y, the protein stability index falls from 2.33 to 1.83.

Compared with A13M, A13T is higher in protein stability index: 2.31 for the first, 2.33 for the second.

Compared with A13N, A10D is higher in protein stability index: 2.38 for the first, 2.57 for the second.

A10C and T8Y are the same in protein stability index: 1.94 for the first, 1.94 for the second.

First: D16L
Second: D16Q
The protein stability index of the first is higher: 2.6 for the first, 1.9 for the second.

First: K14L
Second: K14Q
The protein stability index of the first is lower: 2.28 for the first, 2.48 for the second.

Going from A7L to A7M, the protein stability index rises from 1.9 to 2.23.

Compared with A2F, A2M is lower in protein stability index: 2.44 for the first, 2.27 for the second.

Variants of: B2
Assay: as above
Settings: c terminus: a fixed tail appended

Compared with A8C, L5Q is higher in protein stability index: 1.26 for the first, 2.8 for the second.

Going from L5Y to L5P, the protein stability index rises from 1.83 to 2.31.

Compared with L5A, L5M is higher in protein stability index: 2.47 for the first, 2.54 for the second.

Going from L5R to L5N, the protein stability index rises from 1.78 to 2.34.

First: L5E
Second: L5F
The protein stability index of the first is lower: 1.58 for the first, 3.22 for the second.

Going from L5D to L5K, the protein stability index falls from 2.42 to 1.89.

Going from L5V to L5G, the protein stability index rises from 1.63 to 1.95.

Compared with L5I, L5W is higher in protein stability index: 2.01 for the first, 3.59 for the second.

First: L5H
Second: L5T
The protein stability index of the first is higher: 2.85 for the first, 2.43 for the second.

Going from V1L to V1F, the protein stability index rises from 2.56 to 2.66.

Going from V1D to V1R, the protein stability index rises from 2.2 to 2.44.

Going from V1W to V1K, the protein stability index falls from 1.72 to 1.61.

First: V1E
Second: V1C
The protein stability index of the first is higher: 3.26 for the first, 1.99 for the second.

Compared with V1A, V1H is lower in protein stability index: 3.01 for the first, 1.68 for the second.

Compared with V1G, V1S is higher in protein stability index: 1.96 for the first, 2.55 for the second.

Going from V1I to V1M, the protein stability index falls from 2.75 to 2.21.

Going from V1N to V1Y, the protein stability index falls from 2.64 to 2.03.

Going from V1Q to V1T, the protein stability index rises from 2.13 to 2.62.

Compared with A6K, A6T is higher in protein stability index: 2.74 for the first, 2.77 for the second.

First: A6C
Second: A6G
The protein stability index of the first is lower: 2.86 for the first, 4.25 for the second.

Going from A6V to A6P, the protein stability index falls from 3.12 to 2.32.

First: A6Y
Second: A6F
The protein stability index of the first is lower: 2.9 for the first, 3.07 for the second.

Compared with A6W, A6S is lower in protein stability index: 3.42 for the first, 2.88 for the second.

Going from A6Q to A6D, the protein stability index rises from 1.42 to 3.37.

First: A6I
Second: A6M
The protein stability index of the first is lower: 1.91 for the first, 3.4 for the second.

Compared with A6H, A6R is higher in protein stability index: 2.32 for the first, 3.2 for the second.

Going from A6E to L7K, the protein stability index rises from 2.6 to 3.13.

First: L7N
Second: L7A
The protein stability index of the first is lower: 2.38 for the first, 3.97 for the second.

Going from L7Q to L7S, the protein stability index rises from 2.07 to 2.63.

Going from L7I to L7F, the protein stability index rises from 2.46 to 2.47.

Going from L7T to L7E, the protein stability index falls from 2.52 to 2.39.

Compared with L7G, L7P is lower in protein stability index: 3.96 for the first, 2.7 for the second.

Compared with L7M, L7R is lower in protein stability index: 2.91 for the first, 2.26 for the second.

First: L7Y
Second: L7D
The protein stability index of the first is higher: 3.97 for the first, 1.99 for the second.

Compared with L7W, L7V is lower in protein stability index: 4.04 for the first, 3.13 for the second.

Compared with A3E, A3D is lower in protein stability index: 3.04 for the first, 2.01 for the second.

Compared with A3M, A3F is higher in protein stability index: 2.6 for the first, 2.82 for the second.

Compared with A3Q, A3P is lower in protein stability index: 2.68 for the first, 2.66 for the second.

First: A3R
Second: A3Y
The protein stability index of the first is lower: 2.69 for the first, 3.35 for the second.

First: A3C
Second: A3W
The protein stability index of the first is higher: 3.67 for the first, 2.72 for the second.

Compared with A3G, A3K is lower in protein stability index: 1.88 for the first, 1.08 for the second.

First: A3H
Second: A3V
The protein stability index of the first is higher: 2.2 for the first, 2.16 for the second.

Compared with A3I, A3L is lower in protein stability index: 2.65 for the first, 2.06 for the second.

First: V2F
Second: V2Y
The protein stability index of the first is lower: 2.9 for the first, 3 for the second.

Going from V2D to V2S, the protein stability index falls from 2.43 to 2.18.

First: V2N
Second: V2T
The protein stability index of the first is lower: 2.97 for the first, 3.88 for the second.

First: V2E
Second: V2Q
The protein stability index of the first is lower: 2.41 for the first, 3.03 for the second.

First: V2R
Second: V2G
The protein stability index of the first is higher: 3.31 for the first, 1.72 for the second.

Compared with V2C, V2I is lower in protein stability index: 3.71 for the first, 1.66 for the second.

First: V2A
Second: V2L
The protein stability index of the first is lower: 2.61 for the first, 2.63 for the second.

Compared with V2H, V2K is higher in protein stability index: 4.06 for the first, 4.51 for the second.

First: V2W
Second: V2M
The protein stability index of the first is lower: 1.31 for the first, 2.66 for the second.

Compared with V2P, Y4L is higher in protein stability index: 1.66 for the first, 2.37 for the second.

First: Y4P
Second: Y4T
The protein stability index of the first is lower: 1.75 for the first, 4.26 for the second.

First: Y4N
Second: Y4F
The protein stability index of the first is higher: 3.01 for the first, 2.5 for the second.

Compared with Y4M, Y4D is lower in protein stability index: 2.6 for the first, 2.35 for the second.

Going from Y4Q to Y4E, the protein stability index falls from 2.68 to 2.1.

First: Y4K
Second: Y4H
The protein stability index of the first is lower: 2.3 for the first, 2.65 for the second.

First: Y4W
Second: Y4I
The protein stability index of the first is lower: 1.9 for the first, 4.11 for the second.

Compared with Y4C, Y4R is lower in protein stability index: 3.23 for the first, 3 for the second.

In the case of Y4G, the protein stability index is reported as 4.1.
